From patent US20090232787A1, “CARCINOGEN DETOXIFICATION COMPOSITION AND METHOD” (Gene Research Lab. Co., Ltd., priority 2004, published 2009)

Columns and labels:
lung tumors = assay type: in vivo; conditions: GNMT-overexpressing transgenic mice, 375 μg B(a)P/7g body weight everyday IP for 15 days, sacrificed 78 weeks after the challenge
Protocol: • 1.1 pPEPCKex-flGNMT Plasmid Construction: pPEPCKex-flGNMT plasmid was prepared by using a pPEPCKex vector (concluding with phosphoenolpyruvate carboxykinase promoter (PEPCK, Valera et al., 1994), specific expressed in liver and kidney) and pSK-flGNMT (concluding with full length human GNMT cDNA) plasmid. Both plasmids were digested with Not I and Xho I. Insert was ligated to the vector and transformation into the competent cell (JM109). The clones were selected with ampicillin and screened with PCR to check pPEPCKex-flGNMT plasmid (FIG. 1). • 1.2 Production of Transgenic Mice: pPEPCKex-flGNMT plasmid was amplified and digested with Asc I to linear form (4.3 Kb). The linear form pPEPCKex-flGNMT gene was sent into FVB stain mice 0.5 days embryo by pronuclei microinjection. The embryos were sent into the foster mother (ICR strain mice). After 18-21 days, the mice were bred and screened with PCR to check the transgenic mice. • 1.3 Expression human GNMT in liver and kidney of transgenic mice: To check the PEPCK promoter specific expression organ, we used northern blot (FIG. 2) and western blot (FIG. 3). The human GNMT was specific expression in liver and kidney. […]

[1] = tested on: Cytochrome p450 1A1 (CYP1A1); test: Aryl hydrocarbon hydroxylase (AHH) assay; conditions: cells treated with 9 μM BaP
Protocol: • 1.1 Cell lines and culture. Two HCC cell lines-Huh 7 (13) and HA22TNGH (14)—and one human hepatoblastoma cell line-Hep G2 (15)—were used in this study. Cells were cultured in Dulbecco's modified Eagle's medium (DMEM, GIBCO BRL, Grand Island, N.Y.) with 10% heat-inactivated fetal bovine serum (HyClone, Logan, Utah), penicillin (100 IU/ml), streptomycin (100 μg/ml), nonessential amino acids (0.1 mM), fungizone ([…]) and L-glutamine (2 mM) in a humidified incubator with 5% CO2. • 1.2 Construction of pGNMT, pGNMT-antisense and pGNMT-His-short plasmids. To construct plasmid-pGNMT containing the CMV promoter and GNMT cDNA fragment, we used plasmid-pFLAG-CMV-5 (Kodak, Rochester, N.Y.) as a vector and the pBluescript-GNMT-9-1-2 phagemid (8) as the PCR template for generating the insert. A 0.9 kb DNA fragment containing the GNMT cDNA sequence and restriction enzyme sites on both ends was amplified. All PCR conditions were as recommended by the manufacturer (Perkin Elmer, Norwalk, Conn.) with two exceptions: 2 mM of MgCl2 and 150 nM of primer. Twenty amplification cycles were performed using Perkin Elmer's Amplitaq Gold Taq DNA polymerase with DNA Thermal Cycler. […] RP concentration was measured with a BCA protein assay (Pierce, Rockford, Ill.); purity was tested by running samples on a 12.5% SDS-polyacrylamide mini-gel (Bio-Rad Laboratories, Richmond, Calif.). • 1.4 Transfection. […]

CYP1A1 gene = conditions: following BaP treatment; preliminary data

Substance: GNMT: Glycine N-methyltransferase (EC2.1.1.20), SEQ ID No: 1, SAM-dependent methyltransferase binding benzo(a)pyrene
- mice that generated lung tumors (lung tumors): 30%
- reduction in CYP1A1 enzyme activity in GNMT-expressing cells (SCG2-1-1) compared to SCG2-neg cells [1]: 45%
- reduction of CYP1A1 gene expression in SCG2-1-1 cells compared to Hep G2 cells (CYP1A1 gene): approximately 20%
